Experimental data taken from patent US20080175829A1, “METHOD FOR INDUCING NEURAL DIFFERENTIATION” (priority 2004, published 2008).

B1: GDNF: glial cell line-derived neurotrophic factor, a potent survival factor for many CNS neuronal cell populations (R&D) (protein, UniProt P39905 78-211, looked up)
Glial cell line-derived …: SPDKQMAVLPRRERNRQAAAANPENSRGKGRRGQRGKNRGCVLTAIHLNVTDLGLGYETKEELIFRYCSGSCDAAETTYDKILKNLSRNRRLVSDKVGQACCRPIAFDDDLSFLDDNLVYHILRKHSAKRCGCI

Assays:
[1] = tested on: size-sieved stem cells (SSCs) derived from human bone marrow; experiment: Western Blotting of neuron-specific markers (NF-L, NF-H) and α-tubulin in SSCs; assay type: cell-based; conditions: 7 days in ITS medium; for expression of NF-L protein in SSCs: compared to ITS medium alone
Experimental: This is to study the effects of GDNF, PACAP and dbcAMP on neuronal differentiation of SSC in ITS medium. The levels of neuron-specific markers (NF-L and NF-H) in the SSCs were examined by Western Blotting. The cells were replated at the density of 1×10^5 cells per 35 mm petri dish and cultured for 7 days in ITS medium with GDNF, PACAP or dbcAMP at the distinct concentrations. Cells were harvested and gently homogenized on ice using PBS containing 1% SDS, 1 mM phenylmethyl-sulfonylfluoride (PMSF), 1 mM EDTA, […], […], and […]. Protein concentrations were determined using a Bio-Rad® DC kit. Ten μg of total protein was loaded onto 7.5% SDS-PAGE, and transferred to a nitrocellulous membrane. NF-L (70 kDa) and NF-H (200 kDa) were identified by incubating the membrane with anti-NF antibodies (Chemicon®) overnight at 4° C., followed by horseradish peroxidase-conjugated secondary antibodies and enhanced chemiluminescence solution (NEN LifeScience®).

[2] = tested on: size-sieved stem cells (SSCs) derived from human bone marrow; experiment: Immunofluorescence staining for α-internexin in SSCs; assay type: cell-based; conditions: 7 days in ITS medium; GDNF 50 ng/ml, PACAP 20 ng/ml, dbcAMP 0.1 mM
Experimental: Immunofluorescence staining for another neuronal intermediate filament protein, α-internexin (FIG. 5), was performed using antibodies against α-internexin (1:200; Chemicon®).

[3] = tested on: size-sieved stem cells (SSCs) derived from human bone marrow; experiment: Morphology of SSCs (phase contrast), neuronal-like transformation; assay type: cell-based; conditions: for morphology of neurites/processes of SSCs: ITS medium, 7 days, GDNF 50 ng/ml, PACAP 20 ng/ml, dbcAMP 0.1 mM, compared to ITS medium alone
Experimental: SSCs were isolated from human bone marrow as described previously (Hung et al. (2002)). In brief, human bone marrow was aspirated from the iliac crest of normal donors, and then washed twice with phosphate-buffered saline (PBS). The cells were loaded into 1.073 g/ml Percoll solution (Sigma®), and then centrifuged at 900 g for 30 min. The mononuclear cells (MNCs) were collected from the interface, and plated at the density of 1×10^6 MNCs/cm^2 onto a 10-cm plastic culture dish comprised of an inserted sieve with 3-μm pores (Transwell System, Corning®). The cells were cultured in Dulbecco's modified Eagle's medium-low glucose (DMFM-LG) containing 10% fetal bovine serum (FBS), 100 U/ml penicillin, […] streptomycin, and 0.25 μg/ml amphotericin B (serum-containing medium). […] However, the cells that passed through the sieve were small, polygonal and had less renewal. SSCs were then harvested with 0.25% trypsin and 1 mM EDTA, and replated on 10-cm culture petri dishes. When SSCs were grown in serum containing medium to 80% confluence, the cells were replated onto 35-mm culture petri dishes at the density of 1×10^5 cells/dish for Western Blotting, or onto 8-well chambers at the density of 1×10^4 cells/well for immunofluorescence.
[…] ITS medium consisted of 56% DMEM-LG (Life Biotech®), 40% MCDB-201 medium (Sigma®), and 1×ITS medium supplement (Sigma®) contained 1 mg/ml insulin, 0.55 mg/ml human transferrin, 0.5 μg/ml sodium selenite, 10 nM dexamethasone (Sigma®), and 10 μM ascorbic acid (Sigma®)). […] However, when SSCs were cultured in serum free medium with ITS supplement, these cells adhered well onto cultured plates and extended their processes. Therefore, treatments were performed in ITS medium.

[4] = tested on: rats with spinal cord injury (SCI); conditions: intraspinal injection; cited from earlier work
[5] = tested on: size-sieved stem cells (SSCs) derived from human bone marrow; experiment: Immunofluorescence for synapsin-1 in SSCs; assay type: cell-based; conditions: 7 days in ITS medium; 50 ng/ml GDNF or 20 nM PACAP
Experimental: To detect the morphological change of the SSCs that had been treated with 50 ng/ml GDNF or 20 nM PACAP in ITS medium for 7 days, the SSCs were fixed in PBS-containing 4% paraformaldehyde for 10 minutes. Examination of immunofluorescence for synapsin-1, a synapse vesicle protein, was performed by incubating SSCs with anti-synapsin-1 antibodies (1:200; BD Biosciences®) in PBS-containing 0.1% Triton X-100 and 5% horse serum overnight at 4° C., followed by biotinylated secondary antibodies (1:200; Vector®) and FITC-avidin (1:200; Vector®).

Molecule	level of α-tubulin in SSCs [1]	expression of NF-L protein in SSCs [1]	process branching/elongation of SSCs (α-internexin staining) [2]	morphology of neurites/processes of SSCs [3]	hindlimb recovery [4]	NF-H levels in SSCs [1]	processes of synapsin-1 positive cells [5]	response of SSCs in DMEM-LG medium without serum ([3]; DMEM-LG medium without serum (no ITS supplement))
CCCC(=O)Nc1ncnc2c1ncn2[C@@H]1O[C@@H]2COP(=O)(O)O[C@H]2[C@H]1OC(=O)CCC [dbcAMP, dibutyryl cAMP, reference compound]	increased	increased	more extensive branched, elongated processes	induced highly branched, elongated, and delicate processes				
B1	induces	stimulatory effect	could induce process branching of SSCs to some extent	further improved the extension of neurites	improved hindlimb recovery	less effect	extended processes with branching	respond poorly
